Data reported in PMC4244111, “Structure of Putrescine Aminotransferase from Escherichia coli Provides Insights into the Substrate Specificity among Class III Aminotransferases” (PLoS ONE, 2014).

Molecular target: the molecule itself
Test: crystal structure; crystals by hanging-drop vapour diffusion at 22°C (15% PEG 3350, 0.2 M sodium formate, 0.1 M HEPES pH 7.5); free enzyme at 2.3 Å and putrescine-soaked at 2.1 Å; four molecules in the asymmetric unit; dimer interface analysed with PISA

B1: YgjG putrescine aminotransferase from Escherichia coli (enzyme, UniProt P42588 1-459, looked up)
chain: MNRLPSSASALACSAHALNLIEKRTLDHEEMKALNREVIEYFKEHVNPGFLEYRKSVTAGGDYGAVEWQAGSLNTLVDTQGQEFIDCLGGFGIFNVGHRNPVVVSAVQNQLAKQPLHSQELLDPLRAMLAKTLAALTPGKLKYSFFCNSGTESVEAALKLAKAYQSPRGKFTFIATSGAFHGKSLGALSATAKSTFRKPFMPLLPGFRHVPFGNIEAMRTALNECKKTGDDVAAVILEPIQGEGGVILPPPGYLTAVRKLCDEFGALMILDEVQTGMGRTGKMFACEHENVQPDILCLAKALGGGVMPIGATIATEEVFSVLFDNPFLHTTTFGGNPLACAAALATINVLLEQNLPAQAEQKGDMLLDGFRQLAREYPDLVQEARGKGMLMAIEFVDNEIGYNFASEMFRQRVLVAGTLNNAKTIRIEPPLTLTIEQCELVIKAARKALAAMRVSVEEA
modifications: PLP covalently linked to Lys300 via a Schiff base linkage (free enzyme)
notes: YgjG putrescine aminotransferase (EC 2.6.1.82), Escherichia coli; The seven N-terminal and one C-terminal residues and the His tag are not visible in the electron density; also called PATase; source: E. coli B834(DE3), purified (Ni-NTA, ion-exchange chromatography, size-exclusion chromatography); not shown: His6, C-terminal, kept
stoichiometry N: 2
